Assay [1] deals with S. cerevisiae Ire1 kinase/RNase domains (WT Sc Ire1-KR) (S. cerevisiae). Put plainly: AUC; sedimentation equilibrium, 20°C; 2.5, 5 and 10 μM protein at 7,000, 10,000 and 14,000 rpm; 50 mM Tris/HCl pH 7.5, 200 mM NaCl, 2 mM Mg(OAc)2, 2 mM TCEP; global fit to a self-association equilibrium model; monomer-dimer equilibrium constant.
Assay [2] concerns the target Sc Ire1-KR(K992D,Y1059R) (S. cerevisiae). The description is as above.
Assay [3] shares this target. Put plainly: cross-linking; 12.5 μM Ire1-KR, 2 mM ADP, 1 mM BS3 (bissulfosuccinimidyl suberate), 2 h on ice; 50 mM HEPES, 200 mM NaCl, 2 mM Mg(OAc)2, 2 mM TCEP, 10% glycerol; SDS-PAGE, coomassie blue or SYPRO Ruby.
Assay [4] deals with Sc Ire1-KR(K992R,Y1059D) (S. cerevisiae). The assay is described as above.

This passage reports Kd and stoichiometry N results from article PMC8104961.

Where “and” joins values, the source holds several entries; their conditions need not be identical. Identical values can stand only once.

One may read the Kd as the concentration at which binding is half-saturated. A low value points to a tighter complex. For “S. cerevisiae Ire1 kinase/RNase domains (WT Sc Ire1-KR) (domain or fragment)”, in assay [1], the Kd was 57 µM.

In general, stoichiometry N refers to the number of molecules, sites or subunits per partner or assembly. For “Sc Ire1-KR(K992D,Y1059R) (domain or fragment)”, the Kd in assay [2] turned out to be 0.98 µM. The stoichiometry N in assay [3] is 2 and 4.

In assay [4], “Sc Ire1-KR(K992R,Y1059D) (domain or fragment)” registered a stoichiometry N of 2.
